Like-named read-outs stand apart in the source and are kept apart here. Blank lines part the entries; values can stand above or below the binder they belong to.
Columns and labels:
[1] = target: T1, Ran (recombinant human wild-type Ran, charged with GTP or GDP) (human, UniProt P62826 1-216); experiment: co-IP
[2] = target: T1, Ran (recombinant human wild-type Ran, …); experiment: co-IP; remark: listed apart in the source

binding result [1]: binds
B1: transportin (human transportin/karyopherin β2, recombinant) (natural protein)
chain: MEYEWKPDEQGLQQILQLLKESQSPDTTIQRTVQQKLEQLNQYPDFNNYLIFVLTKLKSEDEPTRSLSGLILKNNVKAHFQNFPNGVTDFIKSECLNNIGDSSPLIRATVGILITTIASKGELQNWPDLLPKLCSLLDSEDYNTCEGAFGALQKICEDSAEILDSDVLDRPLNIMIPKFLQFFKHSSPKIRSHAVACVNQFIISRTQALMLHIDSFIENLFALAGDEEPEVRKNVCRALVMLLEVRMDRLLPHMHNIVEYMLQRTQDQDENVALEACEFWLTLAEQPICKDVLVRHLPKLIPVLVNGMKYSDIDIILLKGDVEEDETIPDSEQDIRPRFHRSRTVAQQHDEDGIEEEDDDDDEIDDDDTISDWNLRKCSAAALDVLANVYRDELLPHILPLLKELLFHHEWVVKESGILVLGAIAEGCMQGMIPYLPELIPHLIQCLSDKKALVRSITCWTLSRYAHWVVSQPPDTYLKPLMTELLKRILDSNKRVQEAACSAFATLEEEACTELVPYLAYILDTLVFAFSKYQHKNLLILYDAIGTLADSVGHHLNKPEYIQMLMPPLIQKWNMLKDEDKDLFPLLECLSSVATALQSGFLPYCEPVYQRCVNLVQKTLAQAMLNNAQPDQYEAPDKDFMIVALDLLSGLAEGLGGNIEQLVARSNILTLMYQCMQDKMPEVRQSSFALLGDLTKACFQHVKPCIADFMPILGTNLNPEFISVCNNATWAIGEISIQMGIEMQPYIPMVLHQLVEIINRPNTPKTLLENTAITIGRLGYVCPQEVAPMLQQFIRPWCTSLRNIRDNEEKDSAFRGICTMISVNPSGVIQDFIFFCDAVASWINPKDDLRDMFCKILHGFKNQVGDENWRRFSDQFPLPLKERLAAFYGV

binding result [2]: binds
B2: hGFP–CAS (human CAS fused to hGFP) (natural protein)
chain: MELSDANLQTLTEYLKKTLDPDPAIRRPAEKFLESVEGNQNYPLLLLTLLEKSQDNVIKVCASVTFKNYIKRNWRIVEDEPNKICEADRVAIKANIVHLMLSSPEQIQKQLSDAISIIGREDFPQKWPDLLTEMVNRFQSGDFHVINGVLRTAHSLFKRYRHEFKSNELWTEIKLVLDAFALPLTNLFKATIELCSTHANDASALRILFSSLILISKLFYSLNFQDLPEFFEDNMETWMNNFHTLLTLDNKLLQTDDEEEAGLLELLKSQICDNAALYAQKYDEEFQRYLPRFVTAIWNLLVTTGQEVKYDLLVSNAIQFLASVCERPHYKNLFEDQNTLTSICEKVIVPNMEFRAADEEAFEDNSEEYIRRDLEGSDIDTRRRAACDLVRGLCKFFEGPVTGIFSGYVNSMLQEYAKNPSVNWKHKDAAIYLVTSLASKAQTQKHGITQANELVNLTEFFVNHILPDLKSANVNEFPVLKADGIKYIMIFRNQVPKEHLLVSIPLLINHLQAESIVVHTYAAHALERLFTMRGPNNATLFTAAEIAPFVEILLTNLFKALTLPGSSENEYIMKAIMRSFSLLQEAIIPYIPTLITQLTQKLLAVSKNPSKPHFNHYMFEAICLSIRITCKANPAAVVNFEEALFLVFTEILQNDVQEFIPYVFQVMSLLLETHKNDIPSSYMALFPHLLQPVLWERTGNIPALVRLLQAFLERGSNTIASAAADKIPGLLGVFQKLIASKANDHQGFYLLNSIIEHMPPESVDQYRKQIFILLFQRLQNSKTTKFIKSFLVFINLYCIKYGALALQEIFDGIQPKMFGMVLEKIIIPEIQKVSGNVEKKICAVGITKLLTECPPMMDTEYTKLWTPLLQSLIGLFELPEDDTIPDEEHFIDIEDTPGYQTAFSQLAFAGKKEHDPVGQMVNNPKIHLAQSLHKLSTACPGRVPSMVSTSLNAEALQYLQGYLQAASVTLL

Source: article PMC2132938 (The Journal of Cell Biology, 1999)
